Among the data in article PMC9433394 are stoichiometry N (actin per Heim2DGel) and stoichiometry N (actin per MKD1-2DGel) values, retold here.

This assay has as its target chicken skeletal muscle actin (chicken) (UniProt P68139). Kind of assay: SEC; 20 uM chicken G-actin mixed with 2DGel at ratios 1:1, 1:2 and 2:1 in 1X KMI-Ca buffer (50 mM KCl, 10 mM imidazole, 1 mM MgCl2, 1 mM CaCl2), 30 min, Enrich SEC 650; peak fractions analysed by SDS-PAGE. In general terms: Size exclusion chromatography separates by hydrodynamic size, large species first.

With “Heim2DGel (two-domain gelsolin of Heimdallarchaeota LC_3) (natural protein)”, the stoichiometry N (actin per Heim2DGel) is 1. Take “MKD1-2DGel (two-domain gelsolin of Candidatus Prometheoarchaeum syntrophicum MK-D1) (natural protein)”: the stoichiometry N (actin per MKD1-2DGel) worked out at 2.
